The results in this text go back to paper PMC7307649 (Biochemistry, 2020).

The target in assay [1] is T1, ACKR4 C-terminally fused to SmBiT (UniProt Q9NPB9).
T1 sequence: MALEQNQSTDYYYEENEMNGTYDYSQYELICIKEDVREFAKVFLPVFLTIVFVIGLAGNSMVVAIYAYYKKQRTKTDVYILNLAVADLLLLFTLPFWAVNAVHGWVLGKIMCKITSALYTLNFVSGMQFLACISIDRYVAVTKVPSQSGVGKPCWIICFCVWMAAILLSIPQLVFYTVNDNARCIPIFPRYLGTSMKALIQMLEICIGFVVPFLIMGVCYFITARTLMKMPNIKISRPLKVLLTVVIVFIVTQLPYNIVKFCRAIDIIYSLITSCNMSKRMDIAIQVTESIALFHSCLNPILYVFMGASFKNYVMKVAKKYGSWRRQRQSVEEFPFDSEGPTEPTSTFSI

In assay [2] the target is CCR7 C-terminally fused to SmBiT (human) (UniProt P32248).
Assay [3] has the same target. The source holds these as a separate data set.
The target is the same in assay [4]. This is another data set of the same source.
The target in assay [5] is T2, CCR7 C-terminally fused to SmBiT (human, UniProt P32248 25-378).
T2 sequence (looked up): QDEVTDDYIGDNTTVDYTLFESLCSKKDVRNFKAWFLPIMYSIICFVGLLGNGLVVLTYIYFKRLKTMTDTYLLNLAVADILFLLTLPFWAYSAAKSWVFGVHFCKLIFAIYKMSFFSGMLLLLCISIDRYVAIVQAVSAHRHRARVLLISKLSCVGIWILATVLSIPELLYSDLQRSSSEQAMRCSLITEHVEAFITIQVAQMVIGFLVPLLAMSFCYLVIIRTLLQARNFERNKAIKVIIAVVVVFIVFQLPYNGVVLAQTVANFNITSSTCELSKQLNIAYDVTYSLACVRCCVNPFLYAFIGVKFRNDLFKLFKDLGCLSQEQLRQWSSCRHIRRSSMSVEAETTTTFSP
Description: cell-based or functional assay.

In assay [6] the target is T3, ACKR4 C-terminally fused to SmBiT (UniProt Q9NPB9 1-350).
T3 sequence (looked up): T1 sequence
Description: cell-based or functional assay.

The target of assay [7] is T4, CCL21WT (full-length human CCL21, residues 1–111) (human), O00585.
T4 chain: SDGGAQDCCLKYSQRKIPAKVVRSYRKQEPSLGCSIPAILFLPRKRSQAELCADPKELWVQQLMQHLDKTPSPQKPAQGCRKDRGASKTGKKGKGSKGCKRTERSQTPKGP
Description: NMR titration. Particulars: remark: other sources report otherwise.

The target in assay [8] is T4, CCL21WT (full-length human CCL21, …). Description: NMR titration. The conditions noted are these: remark: other sources report otherwise.

On to “CCL21 1–91 C80A (from UniProt O00585 24-114) (domain or fragment)”, for which the β-arrestin 1 recruitment to ACKR4, EC50 in assay [1] was 0.005 µM. In assay [2], this molecule came in with a cAMP inhibition assay, dose–response from 10 pM to 100 nM, EC50 of 7 nM and a β-arrestin 1 recruitment to CCR7, EC50 of 0.06 µM. In assay [3], the calcium flux in CHEM-1 CCR7+ cells, EC50 worked out at 0.0073 µM.
As to “CCL21 1–101 (from UniProt O00585 24-124) (domain or fragment)”, the β-arrestin 1 recruitment to ACKR4, EC50 in assay [1] was found to be 0.03 µM. In assay [2], the β-arrestin 1 recruitment to CCR7, EC50 stood at 0.1 µM. Moreover, the calcium flux in CHEM-1 CCR7+ cells, EC50 in assay [3] was determined as 0.0215 µM.
As to “CCL21 C80AC99A (from UniProt O00585 24-134) (ligand)”, the calcium mobilization in CHEM-1 CCR7+ cells, EC50 in assay [4] was found to be 0.0253 µM.

B1: CCL21trunc (CCL21 residues 1–79) (domain or fragment, human, UniProt O00585 24-102, looked up)
chain: SDGGAQDCCLKYSQRKIPAKVVRSYRKQEPSLGCSIPAILFLPRKRSQAELCADPKELWVQQLMQHLDKTPSPQKPAQG
Consider B1, for which, in assay [5], the “calcium mobilization in CHEM-1 CCR7+ cells, EC50” value was 0.00585 µM and the “β-arrestin 1 recruitment to CCR7 (panel with the truncation variants), EC50” value is roughly 0.06 µM. The “β-arrestin 1 recruitment to ACKR4 (panel with the truncation variants), EC50” value in assay [6] was roughly 0.005 µM.

B2: CCL21WT (full-length human CCL21, residues 1–111) (ligand, UniProt O00585 24-134, looked up)
chain: T4 chain
For B2, in assay [5], the “calcium mobilization in CHEM-1 CCR7+ cells, EC50” value stood at 0.0334 µM. Also, in assay [5], the “β-arrestin 1 recruitment to CCR7 (panel with the truncation variants), EC50” value was roughly 0.1 µM. Moreover, the “β-arrestin 1 recruitment to ACKR4 (panel with the truncation variants), EC50” value in assay [6] is roughly 0.03 µM. Further, the Kd (in general, the free concentration of one partner at which half of the binding sites on the other are occupied at equilibrium, for simple one-to-one binding) in assay [7] was 2000 to 10000 µM; in assay [8] it was greater than 1000 µM.
